The source of these data is patent US20240392023A1 (ABCLON, published 2024).

For assay [1], the target named is T1, CD30 expressed on cells (CD30-293T, SUDHL1, HDLM-2) (UniProt P28908 19-595).
T1 sequence (looked up): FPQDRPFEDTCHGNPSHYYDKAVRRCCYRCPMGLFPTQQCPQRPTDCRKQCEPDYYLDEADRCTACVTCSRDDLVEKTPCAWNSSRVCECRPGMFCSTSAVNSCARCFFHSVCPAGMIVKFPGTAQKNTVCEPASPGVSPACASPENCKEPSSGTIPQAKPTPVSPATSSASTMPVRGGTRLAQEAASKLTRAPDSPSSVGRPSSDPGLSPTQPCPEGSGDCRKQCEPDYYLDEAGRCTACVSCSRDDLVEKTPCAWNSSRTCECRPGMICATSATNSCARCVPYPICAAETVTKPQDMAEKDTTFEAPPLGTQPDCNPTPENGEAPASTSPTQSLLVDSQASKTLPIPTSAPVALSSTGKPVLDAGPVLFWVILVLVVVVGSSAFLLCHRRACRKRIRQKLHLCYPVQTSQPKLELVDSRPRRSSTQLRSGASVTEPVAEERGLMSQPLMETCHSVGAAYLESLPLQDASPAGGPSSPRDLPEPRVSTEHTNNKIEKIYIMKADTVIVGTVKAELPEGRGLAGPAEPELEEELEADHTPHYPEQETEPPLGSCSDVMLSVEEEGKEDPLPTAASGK
The assay can be described thus: cell-based or functional assay.

Assay [2] has as its target T1, CD30 expressed on cells (CD30-293T, …). Kind of assay: cell-based or functional assay. This is another data set of the same source.

B1: scFv CAR of anti CD30 antibody (T1-7), on CAR-T cells (other)
chain: EVQLLESGGGLVQPGGSLRLSCAASGFTFSGYGMSWVRQAPGKGLEWVSYISSGSYYTYYADSVKGRFTISRDNSKNTLYLQMNSLRAEDTAVYYCARYRGDNDYYGYFDYWGQGTLVTVSSGGGGSGGGGSGGGGSQSVLTQPPSASGTPGQRVTISCSCSSSNIGNNAVSWYQQLPGTAPKLLIYRNNQRPSGVPDRFSGSKSGTSASLAISGLRSEDEADYYCAADYGSDYVFGGGTKLTVLGGQAGQTTTPAPRPPTPAPTIASQPLSLRPEACRPAAGGAVHTRGLDFACDIYIWAPLAGTCGVLLLSLVITLYCKRGRKKLLYIFKQPFMRPVQTTQEEDGCSCRFPEEEEGGCELRVKFSRSADAPAYQQGQNQLYNELNLGRREEYDVLDKRRGRDPEMGGKPRRKNPQEGLYNELQKDKMAEAYSEIGMKGERRRGKGHDGLYQGLSTATKDTYDALHMQALPPR
In the case of B1, in assay [1], the “Cytotoxicity (%) against CD30-expressing cell (SUDHL1), CAR-T/Target 0.11” value (shortened to “Cytotoxicity (%) … (SUDHL1), CAR-T/Target 0.11”) was 8%; the “Cytotoxicity (%) against CD30-expressing cell (SUDHL1), CAR-T/Target 0.33” value (from here on “Cytotoxicity (%) … (SUDHL1), CAR-T/Target 0.33”) amounted to 18%; the “Cytotoxicity (%) against CD30-expressing cell (SUDHL1), CAR-T/Target 1” value (“Cytotoxicity (%) … (SUDHL1), CAR-T/Target 1” for short) is 34%. Also, in assay [2], the “Cytotoxicity (%) against CD30-expressing cell (CD30-293T), CAR-T/Target 0.11” value was -5%; the “Cytotoxicity (%) against CD30-expressing cell (CD30-293T), CAR-T/Target 0.33” value was -2%; the “Cytotoxicity (%) against CD30-expressing cell (CD30-293T), CAR-T/Target 1” value (from here on “Cytotoxicity (%) … (CD30-293T), CAR-T/Target 1”) is -2%.

B2: scFv CAR of anti CD30 antibody (T1-2), on CAR-T cells (other)
chain: EVQLLESGGGLVQPGGSLRLSCAASGFTFSGYGMSWVRQAPGKGLEWVSYISGYSYYTYYADSVKGRFTFSRDNSKNTLYLQMNSLRAEDTAVYYCARYDGNGFDYWGQGTLVTVSSGGGGSGGGGSGGGGSQSVLTQPPSASGTPGQRVTISCSGSSSNIGSNYVYWYQQLPGTAPKLLIYRNNQRPSGVPDRFSGSKSGTSASLAISGLRSEDEADYYCAADSSDDSYVFGGGTKLTVLGGQAGQTTTPAPRPPTPAPTIASQPLSLRPEACRPAAGGAVHTRGLDFACDIYIWAPLAGTCGVLLLSLVITLYCKRGRKKLLYIFKQPFMRPVQTTQEEDGCSCRFPEEEEGGCELRVKFSRSADAPAYQQGQNQLYNELNLGRREEYDVLDKRRGRDPEMGGKPRRKNPQEGLYNELQKDKMAEAYSEIGMKGERRRGKGHDGLYQGLSTATKDTYDALHMQALPPR
For B2, in assay [1], the “Cytotoxicity (%) … (SUDHL1), CAR-T/Target 0.11” value amounted to 11%; the “Cytotoxicity (%) … (SUDHL1), CAR-T/Target 0.33” value is 35%; the “Cytotoxicity (%) … (SUDHL1), CAR-T/Target 1” value was determined as 54%. Further, in assay [2], the “Cytotoxicity (%) against CD30-expressing cell (CD30-293T), CAR-T/Target 0.11” value is 1%; the “Cytotoxicity (%) against CD30-expressing cell (CD30-293T), CAR-T/Target 0.33” value was 7%; the “Cytotoxicity (%) … (CD30-293T), CAR-T/Target 1” value stood at 13%.

B3: scFv CAR of anti CD30 antibody (T1-36), on CAR-T cells (other)
chain: EVQLLESGGGLVQPGGSLRLSCAASGFTFSYYYMSWVRQAPGKGLEWVSYIGGGGSGTYYADSVKGRFTISRDNSKNTLYLQMNSLRAEDTAVYYCARGPYYGYFDYWGQGTLVTVSSGGGGSGGGGSGGGGSQSVLTQPPSASGTPGQRVTISCSGSSSNIGSNYVYWYQQLPGTAPKLLIYRNNQRPSGVPDRFSGSKSGTSASLAISGLRSEDEADYYCAAYPSYDSYVFGGGTKLTVLGGQAGQTTTPAPRPPTPAPTIASQPLSLRPEACRPAAGGAVHTRGLDFACDIYIWAPLAGTCGVLLLSLVITLYCKRGRKKLLYIFKQPFMRPVQTTQEEDGCSCRFPEEEEGGCELRVKFSRSADAPAYQQGQNQLYNELNLGRREEYDVLDKRRGRDPEMGGKPRRKNPQEGLYNELQKDKMAEAYSEIGMKGERRRGKGHDGLYQGLSTATKDTYDALHMQALPPR
In the case of B3, in assay [1], the “Cytotoxicity (%) … (SUDHL1), CAR-T/Target 0.11” value is 48%; the “Cytotoxicity (%) … (SUDHL1), CAR-T/Target 0.33” value was determined as 89%; the “Cytotoxicity (%) … (SUDHL1), CAR-T/Target 1” value was 95%. In assay [2], the “Cytotoxicity (%) against CD30-expressing cell (CD30-293T), CAR-T/Target 0.11” value came to 21%; the “Cytotoxicity (%) against CD30-expressing cell (CD30-293T), CAR-T/Target 0.33” value is 78%; the “Cytotoxicity (%) … (CD30-293T), CAR-T/Target 1” value came out at 98%.

B4: scFv CAR of anti CD30 antibody (T1-8), on CAR-T cells (other)
chain: EVQLLESGGGLVQPGGSLRLSCAASGFTFSSYMSWVRQAPGKGLEWVSSIGSGYYSTYYADSVKGRFTISRDNSKNTLYLQMNSLRAEDTAVYYCARDYYGGFDYWGQGTLVTVSSGGGGSGGGGSGGGGSQSVLTQPPSASGTPGQRVTISCSGSSSNIGSNYVYWYQQLPGTAPKLLIYRNNQRPSGVPDRFSGSKSGTSASLAISGLRSEDEADYYCAAYDSYSYVFGGGTKLTVLGGQAGQTTTPAPRPPTPAPTIASQPLSLRPEACRPAAGGAVHTRGLDFACDIYIWAPLAGTCGVLLLSLVITLYCKRGRKKLLYIFKQPFMRPVQTTQEEDGCSCRFPEEEEGGCELRVKFSRSADAPAYQQGQNQLYNELNLGRREEYDVLDKRRGRDPEMGGKPRRKNPQEGLYNELQKDKMAEAYSEIGMKGERRRGKGHDGLYQGLSTATKDTYDALHMQALPPR
Regarding B4, in assay [1], the “Cytotoxicity (%) … (SUDHL1), CAR-T/Target 0.11” value was 43%; the “Cytotoxicity (%) … (SUDHL1), CAR-T/Target 0.33” value came out at 60%; the “Cytotoxicity (%) … (SUDHL1), CAR-T/Target 1” value stood at 78%. In assay [2], the “Cytotoxicity (%) against CD30-expressing cell (CD30-293T), CAR-T/Target 0.11” value is -8%; the “Cytotoxicity (%) against CD30-expressing cell (CD30-293T), CAR-T/Target 0.33” value was found to be 0%; the “Cytotoxicity (%) … (CD30-293T), CAR-T/Target 1” value came to 35%.

B5: scFv CAR of anti CD30 antibody (T1-10), on CAR-T cells (other)
chain: EVQLLESGGGLVQPGGSLRLSCAASGFTFSSYGMSWVRQAPGKGLEWVSYISGGSYYTYYADSVKGRFTISRDNSKNTLYLQMNSLRAEDTAVYYCARYGYGYYDGSFDYWGQGTLVTVSSGGGGSGGGGSGGGGSQSVLTQPPSASGTPGQRVTISCSGSSSNIGSNYVYWYQQLPGTAPKLLIYRNNQRPSGVPDRFSGSKSGTSASLAISGLRSEDEADYYCAADGPYNYVFGGGTKLTVLGGQAGQTTTPAPRPPTPAPTIASQPLSLRPEACRPAAGGAVHTRGLDFACDIYIWAPLAGTCGVLLLSLVITLYCKRGRKKLLYIFKQPFMRPVQTTQEEDGCSCRFPEEEEGGCELRVKFSRSADAPAYQQGQNQLYNELNLGRREEYDVLDKRRGRDPEMGGKPRRKNPQEGLYNELQKDKMAEAYSEIGMKGERRRGKGHDGLYQGLSTATKDTYDALHMQALPPR
Consider B5, for which, in assay [1], the “Cytotoxicity (%) … (SUDHL1), CAR-T/Target 0.11” value turned out to be 33%; the “Cytotoxicity (%) … (SUDHL1), CAR-T/Target 0.33” value turned out to be 60%; the “Cytotoxicity (%) … (SUDHL1), CAR-T/Target 1” value was determined as 81%. Moreover, in assay [2], the “Cytotoxicity (%) against CD30-expressing cell (CD30-293T), CAR-T/Target 0.11” value is 1%; the “Cytotoxicity (%) against CD30-expressing cell (CD30-293T), CAR-T/Target 0.33” value worked out at 7%; the “Cytotoxicity (%) … (CD30-293T), CAR-T/Target 1” value came to 33%.

B6: scFv CAR of anti CD30 antibody (T1-117), on CAR-T cells (other)
chain: EVQLLESGGGLVQPGGSLRLSCAASGFTFSYYGMSWVRQAPGKGLEWVSYISGYSSYTYYADSVKGRFTISRDNSKNTLYLQMNSLRAEDTAVYYCARYNDSGSFDYWGQGTLVTVSSGGGGSGGGGSGGGGSQSVLTQPPSASGTPGQRVTISCSGSSSNIGSNYVYWYQQLPGTAPKLLIYRNNQRPSGVPDRFSGSKSGTSASLAISGLRSEDEADYYCAADAGNRYVFGGGTKLTVLGGQAGQTTTPAPRPPTPAPTIASQPLSLRPEACRPAAGGAVHTRGLDFACDIYIWAPLAGTCGVLLLSLVITLYCKRGRKKLLYIFKQPFMRPVQTTQEEDGCSCRFPEEEEGGCELRVKFSRSADAPAYQQGQNQLYNELNLGRREEYDVLDKRRGRDPEMGGKPRRKNPQEGLYNELQKDKMAEAYSEIGMKGERRRGKGHDGLYQGLSTATKDTYDALHMQALPPR
B6: in assay [1], the “Cytotoxicity (%) … (SUDHL1), CAR-T/Target 0.11” value was -2%; the “Cytotoxicity (%) … (SUDHL1), CAR-T/Target 0.33” value was found to be 11%; the “Cytotoxicity (%) … (SUDHL1), CAR-T/Target 1” value is 21%. Moreover, in assay [2], the “Cytotoxicity (%) against CD30-expressing cell (CD30-293T), CAR-T/Target 0.11” value is -3%; the “Cytotoxicity (%) against CD30-expressing cell (CD30-293T), CAR-T/Target 0.33” value is -1%; the “Cytotoxicity (%) … (CD30-293T), CAR-T/Target 1” value was -14%.

B7: scFv CAR of anti CD30 antibody (T1-23), on CAR-T cells (other)
chain: EVQLLESGGGLVQPGGSLRLSCAASGFTFSSYSMSWVRQAPGKGLEWVSGIGYPYYTYYADSVKGRFTISRDNSKNTLYLQMNSLRAEDTAVYYCARYYYDYGFDYWGQGTLVTVSSGGGGSGGGGSGGGGSQSVLTQPPSASGTPGQRVTISCSGSSSNIGSNYVYWYQQLPGTAPKLLIYRNNQRPSGVPDRFSGSKSGTSASLAISGLRSEDEADYYCAAYRSYDYVFGGGTKLTVLGGQAGQTTTPAPRPPTPAPTIASQPLSLRPEACRPAAGGAVHTRGLDFACDIYIWAPLAGTCGVLLLSLVITLYCKRGRKKLLYIFKQPFMRPVQTTQEEDGCSCRFPEEEEGGCELRVKFSRSADAPAYQQGQNQLYNELNLGRREEYDVLDKRRGRDPEMGGKPRRKNPQEGLYNELQKDKMAEAYSEIGMKGERRRGKGHDGLYQGLSTATKDTYDALHMQALPPR
In the case of B7, in assay [1], the “Cytotoxicity (%) … (SUDHL1), CAR-T/Target 0.11” value worked out at 37%; the “Cytotoxicity (%) … (SUDHL1), CAR-T/Target 0.33” value amounted to 68%; the “Cytotoxicity (%) … (SUDHL1), CAR-T/Target 1” value is 84%. For the same molecule, in assay [2], the “Cytotoxicity (%) against CD30-expressing cell (CD30-293T), CAR-T/Target 0.11” value worked out at 7%; the “Cytotoxicity (%) against CD30-expressing cell (CD30-293T), CAR-T/Target 0.33” value came to 41%; the “Cytotoxicity (%) … (CD30-293T), CAR-T/Target 1” value turned out to be 79%.
